Legend:
[1] = target: T1, 重组人CD47蛋白(His-tag) (Acro Biosystems, 货号CD-H5227) (human, UniProt Q08722 19-139); test: Biacore T200 (called BLI in the filing), method as in example 2.5
T1 construct: Analyte (mobile phase) in the Biacore T200 measurements of 2.5 and 6.6; also called recombinant human CD47 protein (His-tag); not shown: His tag

[2] = target: T2, 人CD47抗原 (recombinant human CD47, 北京义翘神州生物技术有限公司, 货号12283-HCCH) (human, UniProt Q08722 19-139); test: blocking ELISA on coated human CD47 (2.0 μg/ml); competitor biotin-labelled human SIRPα (0.2 μg/ml)
T2 construct: The catalogue number is printed only in 6.1 and 6.2; the construct is not described; also called 重组人CD47; human CD47 antigen

[3] = target: T3, human CD47 on cells (Raji-luc, CCRF-CEM, Jurkat, CHO/K1-hCD47) (human, UniProt Q08722 19-323); test: flow cytometry on CHO/K1-hCD47 cells
T3 construct: whole, on cells; also called 细胞表面的CD47

[4] = target: T2, 人CD47抗原 (recombinant human CD47, …); test: ELISA, coated human CD47 (0.2 μg/ml)
[5] = target: T3, human CD47 on cells (Raji-luc, …); test: flow cytometry on Raji-luc and Jurkat cells; against control antibody AB12W2
[6] = target: T3, human CD47 on cells (Raji-luc, …); test: flow cytometry on CCRF-CEM cells

T2 sequence (Q08722 19-139 limits assumed): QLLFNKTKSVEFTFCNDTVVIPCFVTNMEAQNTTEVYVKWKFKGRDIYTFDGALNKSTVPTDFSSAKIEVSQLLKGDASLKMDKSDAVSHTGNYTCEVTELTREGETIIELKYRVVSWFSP
T3 sequence (Q08722 19-323): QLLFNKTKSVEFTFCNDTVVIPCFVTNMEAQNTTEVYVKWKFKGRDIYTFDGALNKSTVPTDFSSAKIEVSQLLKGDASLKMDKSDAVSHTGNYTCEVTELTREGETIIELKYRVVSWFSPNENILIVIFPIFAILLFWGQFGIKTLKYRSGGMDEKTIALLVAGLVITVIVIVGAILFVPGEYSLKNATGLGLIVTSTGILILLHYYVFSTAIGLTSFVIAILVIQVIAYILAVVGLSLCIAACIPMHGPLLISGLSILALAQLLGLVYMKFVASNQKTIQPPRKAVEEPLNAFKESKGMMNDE
T1 sequence (Q08722 19-139 limits assumed): as the sequence (Q08722 19-139 limits assumed) above

Binder | binding result [1] | EC50 [2] | EC50 [3] | EC50 [4] | EC50 lower than that of the control antibody AB12W2 [5] | EC50 [6]
AB12W3 (antibody, human IgG4 S228P, kappa, V domains shown, Humanized from Mo2A1621 by resurfacing; Expressed in CHO cells) VH: EVQLVQSGAEVVKPGATVKISCKASGYSFTDYFMTWMKQSPGKSLEWIGRINPYNGETFYNQKFQGKATLTVDKSSTTAHMELSSLRSEDSAVYYCGRGGTAGTDYWGQGTLLTVSS VL: DVLLTQSPLSLPVTLGQPASISCRSSQSVVRSNGNTYLEWYLQKPGQSPRLLINKVSRRFSGVPDRFSGSGSGSEFTLKISRVEAEDVGIYYCFQGSHVPYTFGQGTKLEIKR |  | 1.17 µg/mL | 0.461 µg/mL | 0.0112 µg/mL |  | 
AB12W6 (antibody, human IgG4 S228P, kappa, Humanized from Mo2A21331 by resurfacing) heavy: not shown light: DIKMTQSPSSKSASVGERVTITCQASQDINNYLSWFQQKPGKAPKTLIYRANRLMTGVPSRFSGSGSGQDFSLTISSLQPEDMGIYYCLQFDDFPLTFGQGTKLEIKRTVAAPSVFIFPPSDEQLKSGTASVVCLLNNFYPREAKVQWKVDNALQSGNSQESVTEQDSKDSTYSLSSTLTLSKADYEKHKVYACEVTHQGLSSPVTKSFNRGEC |  | 1.29 µg/mL | 0.217 µg/mL | 0.0128 µg/mL | 50% | 
AB12W2 (antibody, V domains shown, Humanized anti-human CD47 control antibody with the variable regions of Celgene's CC-90002 (per CN104271757B); it was detected with anti-human IgG; also called CC-90002 (source of the variable regions); 对照抗体AB12W2) VH: QMQLVQSGAEVKKTGSSVKVSCKASGFNIKDYYLHWVRQAPGQALEWMGWIDPDQGDTEYAQKFQDRVTITRDRSMSTAYMELSSLRSEDTAMYYCNAAYGSSSYPMDYWGQGTTVTV VL: NIQMTQSPSAMSASVGDRVTITCKASQDIHRYLSWFQQKPGKVPKHLIYRANRLVSGVPSRFSGSGSGTEFTLTISSLQPEDFATYYCLQYDEFPYTFGGGTKVEIK |  | 1.02 µg/mL |  | 0.0092 µg/mL |  | 0.157 µg/mL

Next, values leading:

binding result [1] | EC50 [2] | EC50 [3] | EC50 [4] | EC50 lower than that of the control antibody AB12W2 [5] | EC50 [6] | Binder
binds |  |  |  |  |  | AB12W4 (antibody, human IgG4 S228P, kappa, V domains shown, Humanized from Mo2A11971 by resurfacing) VH: QIQLVQSGAEVVKPGASVKISCKASGYTFTDYYINWVKQAPGQRLEWIGWIYPGSGNTKHNQKFQGKATLTVDTSSSTAYMELSSLRSEDTAVYFCARRGTYYYGSSSDGFPYWGQGTLVTVSS VL: QIVLTQSPATMSASPGERVTISCRASSSVYYMYWYQQKPGQSPRPWIYRTSNLATGVPARFSGSGSGTSYSLTISSMEPEDFATYYCQQYHSYPLTFGQGTKLEIKR
 |  | 0.252 µg/mL |  |  | 0.162 µg/mL | AB12W9 (antibody, Humanized from Mo2A21331 by resurfacing) heavy: EVKLVESGGGLVKPGGSLRLSCAASGFAFSTYDMSWVRQTPGKGLEWVASISTGGTYTYYPDSVKGRFTIFRDNARNTLYLQMNSLRAEDTALYYCARRPYYFDYWGQGTLLTVSSASTKGPSVFPLAPSSKSTSGGTAALGCLVKDYFPEPVTVSWNSGALTSGVHTFPAVLQSSGLYSLSSVVTVPSSSLGTQTYICNVNHKPSNTKVDKKVEPKSCDKTHTCPPCPAPELLGGPSVFLFPPKPKDQLMISRTPEVTCVVVDVSHEDPEVKFNWYVDGVEVHNAKTKPREEQYASTYRVVSVLTVLHQDWLNGKEYKCKVSNKALPAPIEKTISKAKGQPREPQVYTLPPSREEMTKNQVSLTCLVKGFYPSDIAVEWESNGQPENNYKTTPPVLDSDGSFFLYSKLTVDKSRWQQGNVFSCSVLHEALHNHYTQKSLSLSPGK light: DIKMTQSPSSKSASVGERVTITCQASQDINNYLSWFQQKPGKAPKTLIYRANRLMTGVPSRFSGSGSGQDFSLTISSLQPEDMGIYYCLQFDDFPLTFGQGTKLEIKRTVAAPSVFIFPPSDEQLKSGTASVVCLLNNFYPREAKVQWKVDNALQSGNSQESVTEQDSKDSTYSLSSTLTLSKADYEKHKVYACEVTHQGLSSPVTKSFNRGEC

Reference: patent CN114230662A (ANYUAN MEDICINE SCIENCE AND TECH SHANGHAI LIMITED COMPANY, dated 2022)
